Results: PMC10821591, “Toxoplasma gondii mitochondrial association factor 1b interactome reveals novel binding partners including Ral GTPase accelerating protein α1” (The Journal of Biological Chemistry, 2023)

Target: T1, T. gondii MAF1b (residues 173-443), co-expressed with RalGAPα1(GAP) in insect cells (Toxoplasma gondii, UniProt A0A140H546 173-443)
T1 construct: MAF1b of Toxoplasma gondii, structured C-terminal domain, residues 173-443; The results speak of nickel purification of MAF1b, the methods of streptactin purification and TEV cleavage of RalGAP (±MAF1b)
T1 sequence: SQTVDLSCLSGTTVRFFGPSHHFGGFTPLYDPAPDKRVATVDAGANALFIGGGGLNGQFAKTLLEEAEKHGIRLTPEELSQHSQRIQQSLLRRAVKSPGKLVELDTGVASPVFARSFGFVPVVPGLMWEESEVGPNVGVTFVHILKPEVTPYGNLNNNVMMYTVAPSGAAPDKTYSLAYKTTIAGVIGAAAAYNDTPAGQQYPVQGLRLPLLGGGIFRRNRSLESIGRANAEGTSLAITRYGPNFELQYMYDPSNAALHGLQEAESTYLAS
Experiment: SEC; RalGAPα1(GAP) co-expressed with MAF1b_WT in T. ni cells, co-purified by affinity chromatography, TEV cleavage, then Superdex 75 16/600 in 20 mM HEPES pH 7.5, 150 mM NaCl, 1 mM DTT; fractions on SDS-PAGE
Conditions: both partners purified

B1: GAP domain of human Ral GTPase Accelerating Protein α1 (residues 1807-1988) (domain or fragment)
chain: not shown
notes: Human RalGAPα1, putative GAP domain, amino acids T1807-P1988 of NP_055805.1; also called RalGAPα1(GAP); RalGAP; not shown: twin-strep-II, N-terminal, cleaved
  binding result: binds
